Experimental findings from patent US20150065440A1, “SULFATED OLIGOSACCHARIDE DERIVATIVES” (Progen Pharmaceuticals Limited, priority 2007, published 2015) are described below.

Substrate in the series: CO[C@H]1O[C@H](COS(=O)(=O)O)[C@@H](O[C@@H]2O[C@@H](C(=O)O)[C@@H](O[C@H]3O[C@H](COS(=O)(=O)O)[C@@H](O[C@@H]4O[C@H](C(=O)O)[C@@H](O[C@H]5O[C@H](COS(=O)(=O)O)[C@@H](O)[C@H](O)[C@H]5NS(=O)(=O)O)[C@H](O)[C@H]4O)[C@H](OS(=O)(=O)O)[C@H]3NS(=O)(=O)O)[C@H](O)[C@H]2OS(=O)(=O)O)[C@H](O)[C@H]1NS(=O)(=O)O
Nature of the series: purified protein, by the assay type. The conditions noted are these: other: substrate of heparanase; pH 5.0.

Description: In the presence of an inhibitor the catalytic activity of heparanase is reduced, and the amount of disaccharide produced and the optical density of the solution are both decreased. The percent inhibition and IC50 of the inhibitor are determined from measurement of the optical density (OD) over a range of inhibitor concentrations.
Assays were carried out in 40 mM sodium acetate buffer, pH 5.0, as follows. […] A blue colour was developed by incubation of the plates at 60° C. for 60 min. […] The IC50 value for each compound was evaluated and converted into a Ki (inhibition constant) using the expression

B1: recombinant human heparanase (Homo sapiens) (protein)
chain 1: KKFKNSTYSRSSVDVLYTFANCSGLDLIFGLNALLRTADLQWNSSNAQLLLDYCSSKGYNISWELGNEPNSFLKKADIFINGSQLGEDFIQLHKLLRKSTFKNAKLYGPDVGQPRRKTAKMLKSFLKAGGEVIDSVTWHHYYLNGRTATKEDFLNPDVLDIFISSVQKVFQVVESTRPGKKVWLGETSSAYGGGAPLLSDTFAAGFMWLDKLGLSARMGIEVVMRQVFFGAGNYHLVDENFDPLPDYWLSLLFKKLVGTKVLMASVQGSKRRKLRVYLHCTNTDNPRYKEGDLTLYAINLHNVTKYLRLPYPFSNKQVDKYLLRPLGPHGLLSKSVQLNGLTLKMVDDQTLPPLMEKPLRPGSSLGLPAFSYSFFVIRNAKVAACI
chain 2: QDVVDLDFFTQEPLHLVSPSFLSVTIDANLATDPRFLILLGSPKLRTLARGLSPAYLRFGGTKTDFLIFDPKKE
One may read the Km as the concentration of substrate that gives half-maximal velocity. With B1, the Km was 33 ± 6 µM.
